# Experiments:
# [1] = soluble HSA microcapsules dissolved in water or extracted; TLC or HPLC
# Method: The beclomethasone was extracted from the microcapsules by the precipitation of the HSA in 10% TCA, and the supernatant was extracted into ethanol. The ethanol extract was analysed using HPLC, at a wavelength 242 nm.
# The soluble microcapsules thus made were sampled, characterised and analysed for drug content.
# [2] = molecular target: T1, trypsin (Bos taurus, UniProt P00760); test: Trypsin inhibitory activity of spray-dried alpha-1 antitrypsin vs freeze dried starting material; format: biochemical; details: within the experimental error
# T1 construct: gene PRSS1
# T1 sequence (P00760 24-246): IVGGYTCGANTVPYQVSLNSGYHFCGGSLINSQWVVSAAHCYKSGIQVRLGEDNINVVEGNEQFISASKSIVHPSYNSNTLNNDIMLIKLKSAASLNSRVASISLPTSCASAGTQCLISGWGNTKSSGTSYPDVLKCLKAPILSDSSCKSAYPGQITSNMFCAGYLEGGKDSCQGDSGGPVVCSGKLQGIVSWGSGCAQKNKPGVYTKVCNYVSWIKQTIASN
# Method: (§1) Alpha-1 antitrypsin derived from human serum was spray-dried under conditions similar to Example 1 with an inlet temperature of 150° C. and an outlet temperature of 80° C. In all other respects the conditions for drying were the same as Example 1. […] The microparticles were dissolved in aqueous medium and analysed for retention of protein structure and normal trypsin inhibitory activity, then compared to the original freeze dried starting material.
# [3] = Structural integrity of protein after spray-drying (gel filtration, tryptic peptide mapping, reverse phase, capillary electrophoresis); format: physicochemical; details: microparticles dissolved in aqueous medium, compared with original material
# Method: Under the conditions described, with a nozzle pressure of 7.5 bar, microparticles were produced with a particle size of 4.7 μm. These soluble microparticles were smooth and spherical with less than 1% of the particles over a particle size of 6 μm. The microparticles were dissolved in aqueous medium and the molecular weight of the HSA determined by gel filtration chromatography. The resultant chromatograms for the original and spray-dried HSA are shown (FIG. 1).
# as §1
retention of inhibitory activity after spray-drying [2],Compound,state of the active compound on dissolution of the microcapsules [1],structural change of the protein after spray-drying [3]
,C[C@H]1C[C@H]2[C@@H]3CCC4=CC(=O)C=C[C@]4(C)[C@@]3(Cl)[C@@H](O)C[C@]2(C)[C@@]1(O)C(=O)CO [beclomethasone],majority of the active compound was in the free state,
full retention of inhibitory activity,"Alpha-1 antitrypsin: Alpha-1 antitrypsin derived from human serum, spray-dried to soluble microparticles of mean size 4.5 μm",,no significant structural changes
